In US20110053851A1:

Target: human FXa (human) (UniProt P00742)
Assay: cell-based or functional assay

Chain of UniProt P00742 (P00742 41-488 limits assumed): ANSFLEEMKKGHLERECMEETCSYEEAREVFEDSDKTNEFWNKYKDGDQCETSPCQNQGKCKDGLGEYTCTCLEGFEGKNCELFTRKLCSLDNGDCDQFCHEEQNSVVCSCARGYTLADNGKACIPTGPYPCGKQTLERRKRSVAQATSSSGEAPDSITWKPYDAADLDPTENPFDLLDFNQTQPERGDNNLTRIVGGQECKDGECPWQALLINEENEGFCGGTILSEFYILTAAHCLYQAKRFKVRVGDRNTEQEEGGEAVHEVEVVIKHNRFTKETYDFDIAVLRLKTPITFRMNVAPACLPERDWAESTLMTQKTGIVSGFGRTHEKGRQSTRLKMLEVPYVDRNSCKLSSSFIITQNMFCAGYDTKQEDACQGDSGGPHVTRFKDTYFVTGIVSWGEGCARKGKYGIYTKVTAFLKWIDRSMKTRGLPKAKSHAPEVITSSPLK

P. textilis snake venom FV
CT (ave) (sec), citrated plasma; Fva 10 (1/10), PL 50, Ca 50: 23.7 s
CT (ave) (sec), citrated plasma; Fva 10 (1/100), PL 50, Ca 50: 54.7 s
CT (ave) (sec), citrated plasma; Fva 25 (1/10), PL 50, Ca 50: 19.7 s
CT (ave) (sec), citrated plasma; Fva 25 (1/100), PL 50, Ca 50: 41 s
CT (ave) (sec), citrated plasma; Fva 50 (1/10), PL 0, Ca 50: 67.5 s
CT (ave) (sec), citrated plasma; Fva 50 (1/10), PL 50, Ca 50: 18 s
CT (ave) (sec), citrated plasma; Fva 50 (1/100), PL 0, Ca 50: 90.8 s
CT (ave) (sec), citrated plasma; Fva 50 (1/100), PL 50, Ca 50: 31.6 s
CT (ave) (sec), citrated plasma; Fva 50 (1/1000), PL 0, Ca 50: > 300 s
CT (ave) (sec), citrated plasma; Fva 50 (1/1000), PL 50, Ca 50: 68.7 s
CT (ave) (sec), citrated plasma; Fva (A280 = 1.080) 10, PL 50, Ca 50: 15 s
CT (ave) (sec), citrated plasma; Fva (A280 = 1.080) 25, PL 50, Ca 50: 13.6 s
CT (ave) (sec), citrated plasma; Fva (A280 = 1.080) 50, PL 0, Ca 50: 54.3 s
CT (ave) (sec), citrated plasma; Fva (A280 = 1.080) 50, PL 50, Ca 0: > 300 s
CT (ave) (sec), citrated plasma; Fva (A280 = 1.080) 50, PL 50, Ca 50: 12.7 s
Citrated Plasma Clotting Time (Sec) at FV 0.7 nM (0 nM FV: 151): 69 s
Citrated Plasma Clotting Time (Sec) at FV 7 nM (0 nM FV: 151): 32 s
Citrated Plasma Clotting Time (Sec) at FV 70 nM (0 nM FV: 151): 18 s
Citrated Plasma Clotting Time (Sec) at FV 700 nM (0 nM FV: 151): 13 s
Clotting time (sec) (1), citrated plasma; Fva 10 (1/10), PL 50, Ca 50: 24.1 s
Clotting time (sec) (1), citrated plasma; Fva 10 (1/100), PL 50, Ca 50: 53.3 s
Clotting time (sec) (1), citrated plasma; Fva 25 (1/10), PL 50, Ca 50: 19.6 s
Clotting time (sec) (1), citrated plasma; Fva 25 (1/100), PL 50, Ca 50: 39.5 s
Clotting time (sec) (1), citrated plasma; Fva 50 (1/10), PL 0, Ca 50: 68.9 s
Clotting time (sec) (1), citrated plasma; Fva 50 (1/10), PL 50, Ca 50: 18.3 s
Clotting time (sec) (1), citrated plasma; Fva 50 (1/100), PL 0, Ca 50: 84.3 s
Clotting time (sec) (1), citrated plasma; Fva 50 (1/100), PL 50, Ca 50: 32.3 s
Clotting time (sec) (1), citrated plasma; Fva 50 (1/1000), PL 0, Ca 50: > 300 s
Clotting time (sec) (1), citrated plasma; Fva 50 (1/1000), PL 50, Ca 50: 69.7 s
Clotting time (sec) (1), citrated plasma; Fva (A280 = 1.080) 10, PL 50, Ca 50: 15.2 s
Clotting time (sec) (1), citrated plasma; Fva (A280 = 1.080) 25, PL 50, Ca 50: 13.3 s
Clotting time (sec) (1), citrated plasma; Fva (A280 = 1.080) 50, PL 0, Ca 50: 54.1 s
Clotting time (sec) (1), citrated plasma; Fva (A280 = 1.080) 50, PL 50, Ca 0: > 300 s
Clotting time (sec) (1), citrated plasma; Fva (A280 = 1.080) 50, PL 50, Ca 50: 12.6 s
Clotting time (sec) (2), citrated plasma; Fva 10 (1/10), PL 50, Ca 50: 23.4 s
Clotting time (sec) (2), citrated plasma; Fva 10 (1/100), PL 50, Ca 50: 56 s
Clotting time (sec) (2), citrated plasma; Fva 25 (1/10), PL 50, Ca 50: 19.8 s
Clotting time (sec) (2), citrated plasma; Fva 25 (1/100), PL 50, Ca 50: 42.5 s
Clotting time (sec) (2), citrated plasma; Fva 50 (1/10), PL 0, Ca 50: 67 s
Clotting time (sec) (2), citrated plasma; Fva 50 (1/10), PL 50, Ca 50: 17.6 s
Clotting time (sec) (2), citrated plasma; Fva 50 (1/100), PL 0, Ca 50: 97.4 s
Clotting time (sec) (2), citrated plasma; Fva 50 (1/100), PL 50, Ca 50: 31 s
Clotting time (sec) (2), citrated plasma; Fva 50 (1/1000), PL 0, Ca 50: > 300 s
Clotting time (sec) (2), citrated plasma; Fva 50 (1/1000), PL 50, Ca 50: 67.7 s
Clotting time (sec) (2), citrated plasma; Fva (A280 = 1.080) 10, PL 50, Ca 50: 14.8 s
Clotting time (sec) (2), citrated plasma; Fva (A280 = 1.080) 25, PL 50, Ca 50: 13.8 s
Clotting time (sec) (2), citrated plasma; Fva (A280 = 1.080) 50, PL 0, Ca 50: 54.5 s
Clotting time (sec) (2), citrated plasma; Fva (A280 = 1.080) 50, PL 50, Ca 0: > 300 s
Clotting time (sec) (2), citrated plasma; Fva (A280 = 1.080) 50, PL 50, Ca 50: 12.8 s
clotting time of re-calcified citrated whole blood with 20 nM APC and 280 nM snake venom FV (no APC: 505 seconds; APC alone: 1333 seconds): 127 s
